In PMC3162038:

Substrate: N[C@H]1C[C@H](COP(=O)(O)O)[C@@H](O)[C@H](O)[C@H]1O
Assay: PK/LDH coupled colorimetric assay at A340, Hanes-Woolf plot
Format: biochemical, Streptomyces hygroscopicus
Settings: 300 μM GDP-valienol, 50 mM Tris-HCl pH 7.5, 5 mM MgCl2, apparent

B1: VldE (Streptomyces hygroscopicus subsp. limoneus) (protein)
chain: MTGSEIFLASKRAAITYDTDPATGEPRAWLAPGGTGNVVAEQAGVLNISWIASADSEDDRRASALNPDGVTMELHSGREILVRLIRHDPAVFRNVQNFMTANLMWAANNYGWDRWTQPSFGSDAREGWADFGRFTRDFADAILKSSAQSADPVYLVHDYQLVGVPALLREQRPDAPILLFVHIPWPSADYWRILPKEIRTGILHGMLPATTIGFFADRWCRNFLESVADLLPDARIDREAMTVEWRGHRTRLRTMPLGYSPLTLDGRNPQLPEGIEEWADGHRLVVHSGRTDPIKNAERAVRAFVLAARGGGLEKTRMLVRMNPNRLYVPANADYVHRVETAVAEANAELGSDTVRIDNDNDVNHTIACFRRADLLIFNSTVDGQNLSTFEAPLVNERDADVILSETCGAAEVLGEYCRSVNPFDLVEQAEAISAALAAGPRQRAEAAARRRDAARPWTLEAWVQAQLDGLAADHAARTATAERFDTAPAVSTRADL
In the case of B1, the Km is reported as 308.0 ± 34.5 µM.
